The data set concerns the molecule itself. The data set is described as follows: crystal structure; GyrB43 incubated with a 15 fold molar excess of ATP and MgCl2 (hydrolysed to ADP.Pi), 50 mM Na-phosphate buffer; sitting drop, 20°C, 0.1 M tri-ammonium citrate pH 6.5, 25% PEG 2000; space group C2221, 1.8 Å; dimer by the crystallographic dyad.

B1: 43 kDa N-terminal fragment of GyrB from E. coli (GyrB43) (domain or fragment)
chain: not shown
notes: DNA gyrase subunit B (GyrB), E. coli, residues 1-392, comprising the ATPase domain (20-220) and the transducer domain (221-392); amplified from E. coli genomic DNA; By the forward primer the His6 codons follow the start ATG and are followed by the codons of S2, N3, S4, Y5; No removal of the tag is described; The dimer is formed by a crystallographic two-fold axis (one monomer per asymmetric …)
Turning to B1, the binding result is “binds”.

Values taken from publication PMC4159350, “Structure of the N-Terminal Gyrase B Fragment in Complex with ADP⋅Pi Reveals Rigid-Body Motion Induced by ATP Hydrolysis” (PLoS ONE, 2014).
